This is an account of results in publication PMC5626996.

For the test, the target named is NADH-dependent [FeFe]-hydrogenase Hyd1ABC (purified recombinant heterotrimer) (Syntrophomonas wolfei).

B1: Clostridial ferredoxin (Clostridium pasteurianum) (natural protein)
chain: MAYKIADSCVSCGACASECPVNAISQGDSIFVIDADTCIDCGNCANVCPVGAPVQE
For B1, the hydrogenase activity, Fdred → H2 (hydrogen production from reduced ferredoxin without NADH), 37°C, pH 7.5 is less than 0.01 U · mg^−1 and the hydrogenase activity, H2 → Fdox (reduction of oxidized ferredoxin with hydrogen as the electron donor), 37°C, pH 7.5 is less than 0.01 U · mg^−1.
